Experimental data taken from patent publication US20250163169.

Columns and labels:
[1] = tested on: 43-mer covering the stalk region of CD95L (residue 103 to residue 145)
Sequence of 43-mer covering the stalk region of CD95L (residue 103 to residue 145) (chain, as listed by the source): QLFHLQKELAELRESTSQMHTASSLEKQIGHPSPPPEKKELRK

Sequence of MMP3 (chain, as listed by the source): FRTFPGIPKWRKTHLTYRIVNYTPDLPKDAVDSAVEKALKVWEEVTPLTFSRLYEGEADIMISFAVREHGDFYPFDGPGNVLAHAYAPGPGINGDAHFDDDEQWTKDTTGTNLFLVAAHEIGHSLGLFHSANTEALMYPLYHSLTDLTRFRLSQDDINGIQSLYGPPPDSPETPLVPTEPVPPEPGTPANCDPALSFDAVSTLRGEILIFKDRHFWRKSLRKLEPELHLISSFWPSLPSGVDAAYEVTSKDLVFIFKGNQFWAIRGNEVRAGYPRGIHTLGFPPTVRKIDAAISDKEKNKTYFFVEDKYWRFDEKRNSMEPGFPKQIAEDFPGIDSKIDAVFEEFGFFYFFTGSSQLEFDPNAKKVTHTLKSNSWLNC
Sequence of Recombinant Ig-CD95L (chain, as listed by the source): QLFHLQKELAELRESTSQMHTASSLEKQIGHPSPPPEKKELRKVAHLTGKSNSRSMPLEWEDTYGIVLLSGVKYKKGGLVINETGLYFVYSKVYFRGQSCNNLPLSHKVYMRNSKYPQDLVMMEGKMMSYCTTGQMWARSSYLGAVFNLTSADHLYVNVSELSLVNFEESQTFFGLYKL

MMP3
percentage of degradation of the 43-mer (LC-MS/MS) [1]: more of 20% of cleavage | cleavage of Ig-CD95L (western blotting) (Recombinant Ig-CD95L): Using this Ig-CD95L, we showed that MMP2 and MMP3 can cleave CD95L
